Patent EP1942187B1
Values belong to the substance of their own block, whether it stands above or below them.

Experiments:
Test in all cases: cell-based or functional assay
[1] = target: zcytoR19 and IL10Rb (CRF2-4) coexpressed on BHK cells (human)
[2] = target: IL10Rb (CRF2-4) (human) (UniProt Q08334)
[3] = target: human zcytor19 (human)

Chain of IL10Rb (CRF2-4) (human) (Q08334 20-325 limits assumed, form in doubt): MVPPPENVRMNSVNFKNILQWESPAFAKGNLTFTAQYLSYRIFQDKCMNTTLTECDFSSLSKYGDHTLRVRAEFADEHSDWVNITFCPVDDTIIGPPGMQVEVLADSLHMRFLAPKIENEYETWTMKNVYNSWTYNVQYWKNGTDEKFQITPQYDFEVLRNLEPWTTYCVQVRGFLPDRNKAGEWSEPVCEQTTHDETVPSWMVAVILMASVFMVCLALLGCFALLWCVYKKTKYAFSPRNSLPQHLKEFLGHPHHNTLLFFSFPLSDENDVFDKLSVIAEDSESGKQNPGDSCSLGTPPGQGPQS

ISRE-luciferase fold induction; BHK cells transfected with zcytoR19 and IL10Rb (CRF2-4); zcyto22 0.001 ng/ml (fold induction) [1]: 1.3
ISRE-luciferase fold induction; BHK cells transfected with zcytoR19 and IL10Rb (CRF2-4); zcyto22 0.01 ng/ml (fold induction) [1]: 1.7
ISRE-luciferase fold induction; BHK cells transfected with zcytoR19 and IL10Rb (CRF2-4); zcyto22 0.1 ng/ml (fold induction) [1]: 2.4
ISRE-luciferase fold induction; BHK cells transfected with zcytoR19 and IL10Rb (CRF2-4); zcyto22 1 ng/ml (fold induction) [1]: 2.7
ISRE-luciferase fold induction; BHK cells transfected with zcytoR19 and IL10Rb (CRF2-4); zcyto22 10 ng/ml (fold induction) [1]: 2.7
ISRE-luciferase fold induction; BHK cells transfected with zcytoR19 and IL10Rb (CRF2-4); zcyto22 100 ng/ml (fold induction) [1]: 2.2
ISRE-luciferase fold induction; BHK cells transfected with zcytoR19 and IL10Rb (CRF2-4); zcyto22 1000 ng/ml (fold induction) [1]: 2.2
ISRE-luciferase fold induction; wild-type 293 cells; Zcyto22 0.01 ng/ml; + IL10Rb neutralizing antibody (8 ug/ml) (fold induction) [2]: 0.9
ISRE-luciferase fold induction; wild-type 293 cells; Zcyto22 0.01 ng/ml; no antibody (fold induction) [2]: 0.9
ISRE-luciferase fold induction; wild-type 293 cells; Zcyto22 0.1 ng/ml; + IL10Rb neutralizing antibody (8 ug/ml) (fold induction) [2]: 0.8
ISRE-luciferase fold induction; wild-type 293 cells; Zcyto22 0.1 ng/ml; no antibody (fold induction) [2]: 1.2
ISRE-luciferase fold induction; wild-type 293 cells; Zcyto22 1 ng/ml; + IL10Rb neutralizing antibody (8 ug/ml) (fold induction) [2]: 0.8
ISRE-luciferase fold induction; wild-type 293 cells; Zcyto22 1 ng/ml; no antibody (fold induction) [2]: 1.8
ISRE-luciferase fold induction; wild-type 293 cells; Zcyto22 10 ng/ml; + IL10Rb neutralizing antibody (8 ug/ml) (fold induction) [2]: 1
ISRE-luciferase fold induction; wild-type 293 cells; Zcyto22 10 ng/ml; no antibody (fold induction) [2]: 8
ISRE-luciferase fold induction; wild-type 293 cells; Zcyto22 100 ng/ml; + IL10Rb neutralizing antibody (8 ug/ml) (fold induction) [2]: 1.2
ISRE-luciferase fold induction; wild-type 293 cells; Zcyto22 100 ng/ml; no antibody (fold induction) [2]: 11
ISRE-luciferase fold induction; zcytoR19-overexpressing 293 cells; Zcyto22 0.01 ng/ml; + IL10Rb neutralizing antibody (8 ug/ml) (fold induction) [2]: 1.3
ISRE-luciferase fold induction; zcytoR19-overexpressing 293 cells; Zcyto22 0.01 ng/ml; no antibody (fold induction) [2]: 1
ISRE-luciferase fold induction; zcytoR19-overexpressing 293 cells; Zcyto22 0.1 ng/ml; + IL10Rb neutralizing antibody (8 ug/ml) (fold induction) [2]: 1.1
ISRE-luciferase fold induction; zcytoR19-overexpressing 293 cells; Zcyto22 0.1 ng/ml; no antibody (fold induction) [2]: 8.4
ISRE-luciferase fold induction; zcytoR19-overexpressing 293 cells; Zcyto22 1 ng/ml; + IL10Rb neutralizing antibody (8 ug/ml) (fold induction) [2]: 2.3
ISRE-luciferase fold induction; zcytoR19-overexpressing 293 cells; Zcyto22 1 ng/ml; no antibody (fold induction) [2]: 69
ISRE-luciferase fold induction; zcytoR19-overexpressing 293 cells; Zcyto22 10 ng/ml; + IL10Rb neutralizing antibody (8 ug/ml) (fold induction) [2]: 39
ISRE-luciferase fold induction; zcytoR19-overexpressing 293 cells; Zcyto22 10 ng/ml; no antibody (fold induction) [2]: 97
ISRE-luciferase fold induction; zcytoR19-overexpressing 293 cells; Zcyto22 100 ng/ml; + IL10Rb neutralizing antibody (8 ug/ml) (fold induction) [2]: 76
ISRE-luciferase fold induction; zcytoR19-overexpressing 293 cells; Zcyto22 100 ng/ml; no antibody (fold induction) [2]: 82
ISRE-luciferase fold induction; 293 cells transfected with ISRE-Luc./Zcytor19; Zcyto22 125ng/ml (fold induction) [3]: 104
ISRE-luciferase fold induction; BHK cells transfected with zcytoR19 alone; zcyto22 0.001 ng/ml (fold induction) [3]: 1.2
ISRE-luciferase fold induction; BHK cells transfected with zcytoR19 alone; zcyto22 0.01 ng/ml (fold induction) [3]: 1.2
ISRE-luciferase fold induction; BHK cells transfected with zcytoR19 alone; zcyto22 0.1 ng/ml (fold induction) [3]: 1.1
ISRE-luciferase fold induction; BHK cells transfected with zcytoR19 alone; zcyto22 1 ng/ml (fold induction) [3]: 1.5
ISRE-luciferase fold induction; BHK cells transfected with zcytoR19 alone; zcyto22 10 ng/ml (fold induction) [3]: 1.9
ISRE-luciferase fold induction; BHK cells transfected with zcytoR19 alone; zcyto22 100 ng/ml (fold induction) [3]: 2
ISRE-luciferase fold induction; BHK cells transfected with zcytoR19 alone; zcyto22 1000 ng/ml (fold induction) [3]: 1.8
Substance: zcyto22 (ligand)

ISRE-luciferase fold induction; BHK cells transfected with zcytoR19 and IL10Rb (CRF2-4); zcyto21 0.001 ng/ml (fold induction) [1]: 1.3
ISRE-luciferase fold induction; BHK cells transfected with zcytoR19 and IL10Rb (CRF2-4); zcyto21 0.01 ng/ml (fold induction) [1]: 1.6
ISRE-luciferase fold induction; BHK cells transfected with zcytoR19 and IL10Rb (CRF2-4); zcyto21 0.1 ng/ml (fold induction) [1]: 2.2
ISRE-luciferase fold induction; BHK cells transfected with zcytoR19 and IL10Rb (CRF2-4); zcyto21 1 ng/ml (fold induction) [1]: 2.5
ISRE-luciferase fold induction; BHK cells transfected with zcytoR19 and IL10Rb (CRF2-4); zcyto21 10 ng/ml (fold induction) [1]: 2.6
ISRE-luciferase fold induction; BHK cells transfected with zcytoR19 and IL10Rb (CRF2-4); zcyto21 100 ng/ml (fold induction) [1]: 2.5
ISRE-luciferase fold induction; BHK cells transfected with zcytoR19 and IL10Rb (CRF2-4); zcyto21 1000 ng/ml (fold induction) [1]: 2.2
ISRE-luciferase fold induction; wild-type 293 cells; Zcyto21 0.001 ng/ml; + IL10Rb neutralizing antibody (2.5 ug/ml) (fold induction) [2]: 1.3
ISRE-luciferase fold induction; wild-type 293 cells; Zcyto21 0.001 ng/ml; no antibody (fold induction) [2]: 1.2
ISRE-luciferase fold induction; wild-type 293 cells; Zcyto21 0.01 ng/ml; + IL10Rb neutralizing antibody (2.5 ug/ml) (fold induction) [2]: 1.3
ISRE-luciferase fold induction; wild-type 293 cells; Zcyto21 0.01 ng/ml; no antibody (fold induction) [2]: 1.2
ISRE-luciferase fold induction; wild-type 293 cells; Zcyto21 0.1 ng/ml; + IL10Rb neutralizing antibody (2.5 ug/ml) (fold induction) [2]: 1.3
ISRE-luciferase fold induction; wild-type 293 cells; Zcyto21 0.1 ng/ml; no antibody (fold induction) [2]: 1.1
ISRE-luciferase fold induction; wild-type 293 cells; Zcyto21 1 ng/ml; + IL10Rb neutralizing antibody (2.5 ug/ml) (fold induction) [2]: 1.3
ISRE-luciferase fold induction; wild-type 293 cells; Zcyto21 1 ng/ml; no antibody (fold induction) [2]: 1.5
ISRE-luciferase fold induction; wild-type 293 cells; Zcyto21 10 ng/ml; + IL10Rb neutralizing antibody (2.5 ug/ml) (fold induction) [2]: 1.4
ISRE-luciferase fold induction; wild-type 293 cells; Zcyto21 10 ng/ml; no antibody (fold induction) [2]: 3.2
ISRE-luciferase fold induction; wild-type 293 cells; Zcyto21 100 ng/ml; + IL10Rb neutralizing antibody (2.5 ug/ml) (fold induction) [2]: 1.8
ISRE-luciferase fold induction; wild-type 293 cells; Zcyto21 100 ng/ml; no antibody (fold induction) [2]: 4.1
ISRE-luciferase fold induction; zcytoR19-overexpressing 293 cells; Zcyto21 0.001 ng/ml; + IL10Rb neutralizing antibody (2.5 ug/ml) (fold induction) [2]: 1
ISRE-luciferase fold induction; zcytoR19-overexpressing 293 cells; Zcyto21 0.001 ng/ml; no antibody (fold induction) [2]: 1.1
ISRE-luciferase fold induction; zcytoR19-overexpressing 293 cells; Zcyto21 0.01 ng/ml; + IL10Rb neutralizing antibody (2.5 ug/ml) (fold induction) [2]: 1.1
ISRE-luciferase fold induction; zcytoR19-overexpressing 293 cells; Zcyto21 0.01 ng/ml; no antibody (fold induction) [2]: 3.5
ISRE-luciferase fold induction; zcytoR19-overexpressing 293 cells; Zcyto21 0.1 ng/ml; + IL10Rb neutralizing antibody (2.5 ug/ml) (fold induction) [2]: 1
ISRE-luciferase fold induction; zcytoR19-overexpressing 293 cells; Zcyto21 0.1 ng/ml; no antibody (fold induction) [2]: 1.5
ISRE-luciferase fold induction; zcytoR19-overexpressing 293 cells; Zcyto21 1 ng/ml; + IL10Rb neutralizing antibody (2.5 ug/ml) (fold induction) [2]: 5.8
ISRE-luciferase fold induction; zcytoR19-overexpressing 293 cells; Zcyto21 1 ng/ml; no antibody (fold induction) [2]: 35
ISRE-luciferase fold induction; zcytoR19-overexpressing 293 cells; Zcyto21 10 ng/ml; + IL10Rb neutralizing antibody (2.5 ug/ml) (fold induction) [2]: 28
ISRE-luciferase fold induction; zcytoR19-overexpressing 293 cells; Zcyto21 10 ng/ml; no antibody (fold induction) [2]: 48
ISRE-luciferase fold induction; zcytoR19-overexpressing 293 cells; Zcyto21 100 ng/ml; + IL10Rb neutralizing antibody (2.5 ug/ml) (fold induction) [2]: 31
ISRE-luciferase fold induction; zcytoR19-overexpressing 293 cells; Zcyto21 100 ng/ml; no antibody (fold induction) [2]: 45
ISRE-luciferase fold induction; 293 cells transfected with ISRE-Luc./Zcytor19; Zcyto21 125ng/ml (fold induction) [3]: 108
ISRE-luciferase fold induction; BHK cells transfected with zcytoR19 alone; zcyto21 0.001 ng/ml (fold induction) [3]: 1.3
ISRE-luciferase fold induction; BHK cells transfected with zcytoR19 alone; zcyto21 0.01 ng/ml (fold induction) [3]: 1.4
ISRE-luciferase fold induction; BHK cells transfected with zcytoR19 alone; zcyto21 0.1 ng/ml (fold induction) [3]: 1.4
ISRE-luciferase fold induction; BHK cells transfected with zcytoR19 alone; zcyto21 1 ng/ml (fold induction) [3]: 2
ISRE-luciferase fold induction; BHK cells transfected with zcytoR19 alone; zcyto21 10 ng/ml (fold induction) [3]: 2.4
ISRE-luciferase fold induction; BHK cells transfected with zcytoR19 alone; zcyto21 100 ng/ml (fold induction) [3]: 2.6
ISRE-luciferase fold induction; BHK cells transfected with zcytoR19 alone; zcyto21 1000 ng/ml (fold induction) [3]: 3.3
Substance: zcyto21 (from UniProt Q8IU54 20-200) (ligand)

Optical Density (570nm), MTT, EMCV-infected HuzcytoR19-overexpressing 293 cells; Zcyto20-CEE 0.5 ng/ml; Anti-IL10Rb 5 ug/ml [2]: 0.95 OD 570nm
Optical Density (570nm), MTT, EMCV-infected HuzcytoR19-overexpressing 293 cells; Zcyto20-CEE 0.5 ng/ml; Anti-LeptinR 5 ug/ml (control antibody) [2]: 0.24 OD 570nm
Optical Density (570nm), MTT, EMCV-infected wild-type 293 cells; Zcyto20-CEE 200 ng/ml; Anti-IL10Rb 5 ug/ml [2]: 0.94 OD 570nm
Optical Density (570nm), MTT, EMCV-infected wild-type 293 cells; Zcyto20-CEE 200 ng/ml; Anti-LeptinR 5 ug/ml (control antibody) [2]: 0.88 OD 570nm
Substance: zcyto20-CEE (ligand)
